According to patent US20080081025A1, “Uv Absorbing Chromophores Covalently Bonded to Hyperbranched Polymers” (DSM IP ASSETS B.V., priority 2004, published 2008):

How the values were obtained:
[1] = Solubility in Tegosoft TN (C12-C15 alkylbenzoate); format: physicochemical
Experimental: (§1) Cesium carbonate (16 g, 50 mmol) and potassium iodate (50 mg) were added to a solution of 4-(1,3-benzoxazol-2-yl)-phenol I (8.9 g, 42 mmol) (prepared according to Passerini, J. Chem. Soc. 1954, 2256-2257) in NMP (N-methylpyrolidon) (100 mL) and the mixture stirred under Argon at 80° C. for 20 min. A solution of mesylated poly(glycerol-b-propylene oxide) (7.48 g, 4.4 mmol, 35 mmol MsO) in NMP (60 mL) was added dropwise and the reaction mixture stirred at 80° C. for 12 h. Water and ethyl acetate were added (200 mL each), an orange precipitate was separated by filtration, and the aqueous layer was extracted with ethyl acetate (2×100 mL). […] The amount of attached chromophore was determined using ^1H NMR, comparing the integration of the signals of the phenol's aromatic protons at 6.99 and 8.12 ppm to trimethylolpropane CH3 at 0.87 ppm, to give an average of about 8 chromophores/polymer.
Hybrane200 D2000 (WO 99/16810) was supplied from DSM Hybrane (Geleen, The Netherlands) with a Mn of about 2000 g/mol as determined by GPC. […] The amount of attached chromophore was determined using ^1H NMR, comparing the integration of the signals of the aromatic protons at 6.59 and 7.85 ppm to the CH3 of the aliphatic chain at 0.86 ppm, to give an average of about 8 chromophores/polymer.

[2] = UV absorption (specific extinction E1/1) of the polymeric filter; format: physicochemical; conditions: in CHCl3 at 309 nm
Experimental: as §1
Potassium tert. butylate (2.3 g) were added to a solution of 4-Dicyanomethylene-2,6-dimethyl-1,4-dihydropyridine-N-ethane-2-ol (4.3 g, 20 mmol) in NMP (50 mL) and the mixture stirred under Argon at rt. for 10 min. […] This product was chromatographed in Ethylacetate/Ethanol=19:1 and the fractions were analyzed by GPC. […]
Hybrane200 D2000 (WO 99/16810) was supplied from DSM Hybrane (Geleen, The Netherlands) with a Mn of about 2000 g/mol as determined by GPC. […]

[3] = Photostability according to G. Berset et al., applying the prepared sunscreen instead of a liquid film; format: physicochemical; conditions: Brij O/W sunscreen containing 5% (w/w) chromophore; Berset method
Experimental: The photostability of the conjugates according to the present invention may be measured according to G. Berset et al. International Journal of Cosmetic Science 1996, 18(3), 167-177.
The hyperbranched chromophore II (5.0 g, corresponding to 5% (w/w) UV-filter/sunscreen) was dissolved in Tegosoft TN at 80° C. and added to a mixture of Brij 72 (INCI: Steareth-2) (2.0 g), Brij 721 (INCI: Steareth-21) (2.0 g), Lanette O (cetearyl alcohol) (2.0 g), Estol GMM 3650 (glyceryl monomyristate) (2.0 g), BHT (butylhydroxytoluene) (0.05 g) and Phenonip (phenoxyethanol and methyl-, ethyl-, propyl-, butylparaben) (0.8 g). The mixture was shortly heated to 80° C. in order to melt solid emulsifiers. To the still warm mixture (70-80° C.) a preheated solution (˜80° C.) of glycerin (4.0 g) and EDTA BD (0.1 g) in water (62.95 g) and subsequently 10% aqueous KOH (0.1 g) as well as Sepigel 305 (polyacrylamide and C13-C14 isoparaffin and Laureth-7) (1.0 g) were added slowly under continuous stirring. The resulting emulsion was stirred until a temperature of about 40° C. was reached, homogenized with 24,000 rpm using a ULTRA-TURRAX®, and finally stirred for an additional hour. […] Each in vitro SPF was determined in triplicate to give for chromophore II and Parsol® MCX an average of 6.6 (II) and 6.8, respectively.

[4] = In vitro SPF on PMMA plates using the SPF-290S Analyzer System; conditions: sunscreen containing 5% UV filter; 1.4 mg sunscreen per cm^2 on PMMA plates; triplicate

CCC(COCC(COCC(C)Oc1ccc(-c2nc3ccccc3o2)cc1)OCC(C)OCC(C)Oc1ccc(-c2nc3ccccc3o2)cc1)(COCC(COCC(C)OCC(C)Oc1ccc(-c2nc3ccccc3o2)cc1)OCC(C)Oc1ccc(-c2nc3ccccc3o2)cc1)COCC(COCC(COCC(C)Oc1ccc(-c2nc3ccccc3o2)cc1)OCC(C)Oc1ccc(-c2nc3ccccc3o2)cc1)OCC(COCC(C)Oc1ccc(-c2nc3ccccc3o2)cc1)OCC(C)Oc1ccc(-c2nc3ccccc3o2)cc1 (centres unmarked) [chromophore II]
solubility in Tegosoft TN [1]: at least 24 % (w/w) | E1/1/-value [2]: 840 | photostability: chromophore recovered [3]: 96% | in vitro SPF (average) [4]: 6.6

CCCCC(CC)COC(=O)C=Cc1ccc(OC)cc1 (centres unmarked) [Parsol® MCX, 2-ethylhexyl 4-methoxycinnamate, reference compound]
in vitro SPF (average) [4]: 6.8
